Data from patent publication US20200231654A1 (published 2020).
Residue numbers refer to the chain shown, from its start.

B1: active MMP-9-binding peptide M91014 (designed binder)
chain: GSGMKETAAAKFERQHMDSPDLGTDDDDKAMADIGSANSDPQFGLFSKYRTPNCVMYKYAQCSHKYKPVCGSDMSTYANECTLCMKIREGGHNIKIIRNGPCGASAAA
B2: active MMP-9-binding peptide M91004 (designed binder)
chain: GSGMKETAAAKFERQHMDSPDLGTDDDDKAMADIGSANSDPQFGLFSKYRTPNCRQRKGPSCQMAFQPVCGSDMSTYANECTLCMKIREGGHNIKIIRNGPCGASAAA
B3: active MMP-9-binding peptide M91012 (designed binder)
chain: B2 chain with Q56V, K58G, A65S, Q67N
B4: active MMP-9-binding peptide M91011 (designed binder)
chain: B1 chain with V55M, Y66S, K67Q
B5: active MMP-9-binding peptide M91002 (designed binder)
chain: B2 chain with Q56T, R57G, K58R, S61A, A65G
B6: active MMP-9-binding peptide M91005 (designed binder)
chain: B2 chain with Q56K, K58G, A65S, F66Y, Q67N
B7: active MMP-9-binding peptide M91010 (designed binder)
chain: B2 chain with Q56K, R57V, K58G, G59E, S61A, A65S, Q67N
B8: active MMP-9-binding peptide M91001 (designed binder)
chain: B2 chain with R55Q, Q56R, R57G, K58I, A65S, F66Y, Q67K

target: Protein C from human plasma (human, UniProt P04070 43-461); assay: substrate peptide degradation inhibition
Sequence (P04070 43-461): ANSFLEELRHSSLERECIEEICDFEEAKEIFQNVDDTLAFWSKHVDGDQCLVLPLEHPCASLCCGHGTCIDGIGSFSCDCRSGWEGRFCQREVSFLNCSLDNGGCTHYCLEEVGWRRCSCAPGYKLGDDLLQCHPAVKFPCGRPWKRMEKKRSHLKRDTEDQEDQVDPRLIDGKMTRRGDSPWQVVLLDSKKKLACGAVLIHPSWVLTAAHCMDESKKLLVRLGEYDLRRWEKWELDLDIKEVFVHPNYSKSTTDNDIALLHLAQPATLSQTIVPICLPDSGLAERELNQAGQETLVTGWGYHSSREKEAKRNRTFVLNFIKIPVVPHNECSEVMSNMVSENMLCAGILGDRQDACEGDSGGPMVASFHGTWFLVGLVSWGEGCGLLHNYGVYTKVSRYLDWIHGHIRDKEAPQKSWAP

| Binder | IC50 [nM] |
| --- | --- |
| B1 | > 1000 |
| B2 | > 1000 |
| B3 | > 1000 |
| B4 | > 1000 |
| B5 | > 1000 |
| B6 | > 1000 |
| B7 | > 1000 |
| B8 | > 1000 |

Target: T1, Neutrophil elastase (human) (human, UniProt P08246 30-247)
T1 chain: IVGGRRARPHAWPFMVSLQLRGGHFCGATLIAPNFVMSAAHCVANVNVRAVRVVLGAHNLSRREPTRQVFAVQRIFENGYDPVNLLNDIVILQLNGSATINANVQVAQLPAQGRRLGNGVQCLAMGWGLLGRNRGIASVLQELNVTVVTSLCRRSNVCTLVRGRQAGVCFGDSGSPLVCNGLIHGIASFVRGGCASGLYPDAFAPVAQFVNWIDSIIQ
Assay: substrate peptide degradation inhibition

| Binder | IC50 [nM] |
| --- | --- |
| B1 | > 1000 |
| B2 | > 1000 |
| B3 | > 1000 |
| B4 | > 1000 |
| B5 | > 1000 |
| B6 | > 1000 |
| B7 | > 1000 |
| B8 | > 1000 |

target: Tryptase from human lung (human, UniProt Q15661 31-275); assay: substrate peptide degradation inhibition
Sequence (Q15661 31-275): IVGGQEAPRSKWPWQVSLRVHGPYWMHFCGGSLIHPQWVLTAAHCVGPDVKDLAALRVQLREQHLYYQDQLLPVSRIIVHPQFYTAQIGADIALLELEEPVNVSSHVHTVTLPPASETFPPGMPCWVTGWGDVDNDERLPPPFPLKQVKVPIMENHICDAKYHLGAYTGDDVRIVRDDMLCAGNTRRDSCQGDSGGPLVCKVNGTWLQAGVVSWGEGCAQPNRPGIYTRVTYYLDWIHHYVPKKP

| Binder | IC50 [nM] |
| --- | --- |
| B1 | > 1000 |
| B2 | > 1000 |
| B3 | > 1000 |
| B4 | > 1000 |
| B5 | > 1000 |
| B6 | > 1000 |
| B7 | > 1000 |
| B8 | > 1000 |

target: tissue plasminogen activator human (human, UniProt P00750 36-562); assay: substrate peptide degradation inhibition
Sequence (P00750 36-562): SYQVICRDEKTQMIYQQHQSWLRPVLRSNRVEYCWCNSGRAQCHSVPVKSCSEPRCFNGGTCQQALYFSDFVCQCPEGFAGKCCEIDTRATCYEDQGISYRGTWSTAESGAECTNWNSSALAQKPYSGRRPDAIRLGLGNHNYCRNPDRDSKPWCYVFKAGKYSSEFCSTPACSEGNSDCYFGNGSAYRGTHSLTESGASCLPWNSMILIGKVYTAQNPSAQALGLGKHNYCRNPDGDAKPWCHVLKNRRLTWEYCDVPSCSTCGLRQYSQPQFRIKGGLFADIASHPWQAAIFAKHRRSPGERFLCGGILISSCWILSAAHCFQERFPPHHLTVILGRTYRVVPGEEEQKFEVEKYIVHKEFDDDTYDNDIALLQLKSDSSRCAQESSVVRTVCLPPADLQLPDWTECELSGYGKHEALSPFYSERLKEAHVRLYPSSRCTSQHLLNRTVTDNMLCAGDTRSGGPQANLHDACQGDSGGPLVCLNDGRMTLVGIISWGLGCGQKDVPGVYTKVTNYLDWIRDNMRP

| Binder | IC50 [nM] |
| --- | --- |
| B1 | > 1000 |
| B2 | > 1000 |
| B3 | > 1000 |
| B4 | > 1000 |
| B5 | > 1000 |
| B6 | > 1000 |
| B7 | > 1000 |
| B8 | > 1000 |

target: urokinase from human urine (human, UniProt P00749 21-431); assay: substrate peptide degradation inhibition

| Binder | IC50 [nM] |
| --- | --- |
| B1 | > 1000 |
| B2 | > 1000 |
| B3 | > 1000 |
| B4 | > 1000 |
| B5 | > 1000 |
| B6 | > 1000 |
| B7 | > 1000 |
| B8 | > 1000 |

Target: T2, Chymase human recombinant expressed in Pichia pastoris (human, UniProt P23946 22-247)
T2 chain: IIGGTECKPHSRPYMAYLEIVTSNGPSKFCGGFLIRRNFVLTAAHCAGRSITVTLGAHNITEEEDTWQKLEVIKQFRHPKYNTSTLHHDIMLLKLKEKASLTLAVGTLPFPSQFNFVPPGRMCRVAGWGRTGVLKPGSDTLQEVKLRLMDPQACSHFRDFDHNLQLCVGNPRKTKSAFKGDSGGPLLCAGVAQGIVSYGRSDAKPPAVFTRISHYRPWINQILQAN
Assay: substrate peptide degradation inhibition

| Binder | IC50 [nM] |
| --- | --- |
| B1 | > 1000 |
| B2 | > 1000 |
| B3 | > 1000 |
| B4 | > 1000 |
| B5 | > 1000 |
| B6 | > 1000 |
| B7 | > 1000 |
| B8 | > 1000 |

target: α-Chymotrypsin from human pancreas (human, UniProt P17538 19-263); assay: substrate peptide degradation inhibition
Sequence (P17538 19-263): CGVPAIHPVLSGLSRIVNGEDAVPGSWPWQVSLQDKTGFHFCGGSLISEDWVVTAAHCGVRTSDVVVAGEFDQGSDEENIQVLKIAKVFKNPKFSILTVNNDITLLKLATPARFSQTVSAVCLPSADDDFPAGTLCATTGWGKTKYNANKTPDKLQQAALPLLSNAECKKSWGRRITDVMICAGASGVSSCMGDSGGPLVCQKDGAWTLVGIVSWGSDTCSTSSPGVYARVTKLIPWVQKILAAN

| Binder | IC50 [nM] |
| --- | --- |
| B1 | > 1000 |
| B2 | > 1000 |
| B3 | > 1000 |
| B4 | > 1000 |
| B5 | > 1000 |
| B6 | > 1000 |
| B7 | > 1000 |
| B8 | > 1000 |

Target: T3, Recombinant Human Matriptase/ST14 Catalytic Domain (human, UniProt Q9Y5Y6 596-855)
T3 chain: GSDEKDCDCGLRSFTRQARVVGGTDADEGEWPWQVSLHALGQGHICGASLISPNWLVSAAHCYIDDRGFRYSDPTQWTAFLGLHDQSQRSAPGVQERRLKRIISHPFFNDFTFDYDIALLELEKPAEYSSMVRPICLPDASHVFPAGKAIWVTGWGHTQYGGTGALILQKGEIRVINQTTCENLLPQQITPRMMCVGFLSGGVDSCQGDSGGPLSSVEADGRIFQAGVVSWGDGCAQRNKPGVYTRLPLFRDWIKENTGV
Assay: substrate peptide degradation inhibition

| Binder | IC50 [nM] |
| --- | --- |
| B1 | > 1000 |
| B2 | > 1000 |
| B3 | > 1000 |
| B4 | > 1000 |
| B5 | > 1000 |
| B6 | > 1000 |
| B7 | > 1000 |
| B8 | > 1000 |

target: Trypsin from Human Pancreas (human, UniProt P07477 24-247); assay: substrate peptide degradation inhibition

| Binder | IC50 [nM] |
| --- | --- |
| B1 | > 1000 |
| B2 | > 1000 |
| B3 | > 1000 |
| B4 | > 1000 |
| B5 | > 1000 |
| B6 | > 1000 |
| B7 | > 1000 |
| B8 | > 1000 |

Target: T4, Plasmin from human plasma (human, UniProt P00747 97-810)
T4 chain: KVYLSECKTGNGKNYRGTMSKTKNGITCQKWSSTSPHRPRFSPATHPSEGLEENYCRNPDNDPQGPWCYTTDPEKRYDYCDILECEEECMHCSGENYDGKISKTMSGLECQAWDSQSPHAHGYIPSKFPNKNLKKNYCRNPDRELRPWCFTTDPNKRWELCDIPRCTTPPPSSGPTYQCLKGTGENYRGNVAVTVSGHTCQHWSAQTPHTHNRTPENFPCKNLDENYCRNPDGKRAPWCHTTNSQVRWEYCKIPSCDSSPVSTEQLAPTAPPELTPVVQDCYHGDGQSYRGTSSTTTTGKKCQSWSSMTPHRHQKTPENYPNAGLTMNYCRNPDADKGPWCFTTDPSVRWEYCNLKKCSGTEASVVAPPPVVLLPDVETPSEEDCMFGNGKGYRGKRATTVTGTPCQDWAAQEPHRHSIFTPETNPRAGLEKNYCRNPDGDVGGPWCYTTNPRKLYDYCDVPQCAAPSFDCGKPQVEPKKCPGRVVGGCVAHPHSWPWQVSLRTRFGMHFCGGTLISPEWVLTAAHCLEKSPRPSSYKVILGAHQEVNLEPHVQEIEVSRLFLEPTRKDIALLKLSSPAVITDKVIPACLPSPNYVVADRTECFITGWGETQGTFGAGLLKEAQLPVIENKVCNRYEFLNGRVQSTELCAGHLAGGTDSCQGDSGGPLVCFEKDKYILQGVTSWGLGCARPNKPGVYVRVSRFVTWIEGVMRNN
Assay: substrate peptide degradation inhibition

| Binder | IC50 [nM] |
| --- | --- |
| B1 | > 1000 |
| B2 | > 1000 |
| B3 | > 1000 |
| B4 | > 1000 |
| B5 | > 1000 |
| B6 | > 1000 |
| B7 | > 1000 |
| B8 | > 1000 |

target: recombinant human plasma kallikrein/KLKB1 Protein (human, UniProt P03952 20-638); assay: substrate peptide degradation inhibition
Sequence (P03952 20-638): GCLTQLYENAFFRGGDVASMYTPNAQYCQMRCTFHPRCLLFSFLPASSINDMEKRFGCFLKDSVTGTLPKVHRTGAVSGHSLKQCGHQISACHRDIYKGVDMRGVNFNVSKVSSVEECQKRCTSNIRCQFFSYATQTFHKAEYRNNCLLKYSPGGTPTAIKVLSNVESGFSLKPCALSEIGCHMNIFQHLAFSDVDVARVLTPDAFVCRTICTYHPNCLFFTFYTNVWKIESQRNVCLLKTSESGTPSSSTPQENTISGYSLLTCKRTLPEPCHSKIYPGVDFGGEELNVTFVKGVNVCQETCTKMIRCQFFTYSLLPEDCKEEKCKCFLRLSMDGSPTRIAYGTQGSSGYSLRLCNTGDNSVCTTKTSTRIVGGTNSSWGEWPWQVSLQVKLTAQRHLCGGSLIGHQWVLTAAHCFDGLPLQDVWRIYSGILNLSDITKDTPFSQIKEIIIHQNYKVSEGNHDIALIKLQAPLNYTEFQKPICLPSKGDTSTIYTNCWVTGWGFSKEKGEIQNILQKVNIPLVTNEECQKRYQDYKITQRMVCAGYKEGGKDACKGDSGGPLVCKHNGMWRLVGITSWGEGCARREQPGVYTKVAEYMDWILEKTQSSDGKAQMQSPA

| Binder | IC50 [nM] |
| --- | --- |
| B1 | > 1000 |
| B2 | > 1000 |
| B3 | > 1000 |
| B4 | > 1000 |
| B5 | > 1000 |
| B6 | > 1000 |
| B7 | > 1000 |
| B8 | > 1000 |

target: Thrombin from human plasma (human, UniProt P00734 328-622); assay: substrate peptide degradation inhibition

| Binder | IC50 [nM] |
| --- | --- |
| B1 | > 1000 |
| B2 | > 1000 |
| B3 | > 1000 |
| B4 | > 1000 |
| B5 | > 1000 |
| B6 | > 1000 |
| B7 | > 1000 |
| B8 | > 1000 |

target: biotin-labeled active hMMP-9(cat)_FLAG_Avi (UniProt P14780 107-449, biotin on the Avi tag (biotin ligase BirA)); assay: ELISA
Sequence (P14780 other isoform, or with tags, fused parts or gaps): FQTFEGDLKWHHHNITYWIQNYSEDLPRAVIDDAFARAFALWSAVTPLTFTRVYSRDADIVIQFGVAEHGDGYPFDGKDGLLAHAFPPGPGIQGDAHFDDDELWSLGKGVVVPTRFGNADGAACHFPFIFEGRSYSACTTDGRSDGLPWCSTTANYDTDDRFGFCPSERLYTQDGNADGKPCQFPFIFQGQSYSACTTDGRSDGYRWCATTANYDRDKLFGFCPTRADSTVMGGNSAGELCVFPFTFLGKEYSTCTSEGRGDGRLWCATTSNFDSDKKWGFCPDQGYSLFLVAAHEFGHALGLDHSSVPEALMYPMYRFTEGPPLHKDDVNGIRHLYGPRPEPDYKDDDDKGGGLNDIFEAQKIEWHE

| Binder | EC50 [nM] |
| --- | --- |
| B1 | 8 |
| B2 | 42 |
| B3 | 46 |
| B4 | 16 |
| B5 | 47 |
| B6 | 46 |
| B7 | 48 |
| B8 | 22 |

target: active hMMP-9(cat)_His6 (UniProt P14780 107-449); assay: enzyme inhibition; substrate gelatin
Sequence (P14780 107-449): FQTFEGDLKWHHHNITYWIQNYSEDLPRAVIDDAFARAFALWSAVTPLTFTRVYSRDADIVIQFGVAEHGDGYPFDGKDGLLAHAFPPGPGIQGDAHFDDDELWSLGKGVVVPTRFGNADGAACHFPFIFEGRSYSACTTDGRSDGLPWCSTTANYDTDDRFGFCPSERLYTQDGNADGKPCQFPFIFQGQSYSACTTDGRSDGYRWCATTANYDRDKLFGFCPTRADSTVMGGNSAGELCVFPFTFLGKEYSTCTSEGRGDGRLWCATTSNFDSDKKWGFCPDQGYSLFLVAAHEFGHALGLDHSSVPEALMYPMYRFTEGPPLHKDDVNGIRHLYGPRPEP

| Binder | IC50 [nM] |
| --- | --- |
| B1 | 3 |
| B2 | 7.6 |
| B3 | 8.6 |
| B5 | 8.5 |
| B6 | 8.2 |
| B7 | 5.8 |
| B8 | 8.3 |

target: active mMMP-9(cat)_FLAG_Avi (UniProt P41245 108-450); assay: enzyme inhibition; substrate peptide
Sequence (P41245 other isoform, or with tags, fused parts or gaps): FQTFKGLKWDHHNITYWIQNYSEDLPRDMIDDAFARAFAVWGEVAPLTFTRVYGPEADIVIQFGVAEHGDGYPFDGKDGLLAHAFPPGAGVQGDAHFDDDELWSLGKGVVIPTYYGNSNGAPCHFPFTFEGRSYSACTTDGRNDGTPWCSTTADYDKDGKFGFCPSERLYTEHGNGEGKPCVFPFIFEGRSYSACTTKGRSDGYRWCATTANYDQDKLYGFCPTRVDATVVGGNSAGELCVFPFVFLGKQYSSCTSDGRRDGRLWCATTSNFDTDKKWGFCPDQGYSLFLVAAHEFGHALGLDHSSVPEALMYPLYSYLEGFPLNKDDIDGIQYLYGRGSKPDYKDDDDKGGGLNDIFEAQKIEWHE

| Binder | IC50 [nM] |
| --- | --- |
| B1 | 9.2 |
| B2 | 7.1 |
| B3 | 7.8 |
| B4 | 21 |
| B5 | 5.1 |
| B6 | 8.4 |
| B7 | 5 |
| B8 | 4.1 |

target: MMP-10 (catalytic domain) (human), (recombinant) (human, UniProt P09238 99-266); assay: enzyme inhibition
Sequence (P09238 99-266): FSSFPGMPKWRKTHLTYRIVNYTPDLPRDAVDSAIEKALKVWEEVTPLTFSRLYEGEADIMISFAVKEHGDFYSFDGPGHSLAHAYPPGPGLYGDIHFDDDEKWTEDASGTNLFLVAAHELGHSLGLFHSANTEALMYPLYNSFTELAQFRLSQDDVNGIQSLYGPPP

| Binder | IC50 [nM] |
| --- | --- |
| B1 | > 1000 |
| B2 | > 1000 |
| B3 | > 1000 |
| B4 | > 1000 |
| B5 | > 1000 |
| B6 | > 1000 |
| B7 | > 1000 |
| B8 | > 1000 |

target: human MMP-3 activated by APMA (human, UniProt P08254 100-477); assay: enzyme inhibition
Sequence (P08254 100-477): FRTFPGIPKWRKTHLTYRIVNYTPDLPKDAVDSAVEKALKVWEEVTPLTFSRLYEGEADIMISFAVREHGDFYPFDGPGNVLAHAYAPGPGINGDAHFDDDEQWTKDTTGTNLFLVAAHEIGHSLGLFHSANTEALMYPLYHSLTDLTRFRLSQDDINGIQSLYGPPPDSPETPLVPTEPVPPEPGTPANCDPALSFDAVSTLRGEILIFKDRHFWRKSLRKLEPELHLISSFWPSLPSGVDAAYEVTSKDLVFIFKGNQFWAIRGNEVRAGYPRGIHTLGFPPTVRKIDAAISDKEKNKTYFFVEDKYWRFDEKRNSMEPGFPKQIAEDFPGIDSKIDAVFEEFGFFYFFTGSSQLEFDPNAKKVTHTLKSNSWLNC

| Binder | IC50 [nM] |
| --- | --- |
| B1 | > 1000 |
| B2 | > 1000 |
| B3 | > 1000 |
| B4 | > 1000 |
| B5 | > 1000 |
| B6 | > 1000 |
| B7 | > 1000 |
| B8 | > 1000 |
